Source: IntAct's records for PubMed 30179222

B1: Nuclear pore complex protein Nup85 (Homo sapiens), Q9BW27 (parent)
chain: MEELDGEPTVTLIPGVNSKKNQMYFDWGPGEMLVCETSFNKKEKSEMVPSCPFIYIIRKDVDVYSQILRKLFNESHGIFLGLQRIDEELTGKSRKSQLVRVSKNYRSVIRACMEEMHQVAIAAKDPANGRQFSSQVSILSAMELIWNLCEILFIEVAPAGPLLLHLLDWVRLHVCEVDSLSADVLGSENPSKHDSFWNLVTILVLQGRLDEARQMLSKEADASPASAGICRIMGDLMRTMPILSPGNTQTLTELELKWQHWHEECERYLQDSTFATSPHLESLLKIMLGDEAALLEQKELLSNWYHFLVTRLLYSNPTVKPIDLHYYAQSSLDLFLGGESSPEPLDNILLAAFEFDIHQVIKECSIALSNWWFVAHLTDLLDHCKLLQSHNLYFGSNMREFLLLEYASGLFAHPSLWQLGVDYFDYCPELGRVSLELHIERIPLNTEQKALKVLRICEQRQMTEQVRSICKILAMKAVRNNRLGSALSWSIRAKDAAFATLVSDRFLRDYCERGCFSDLDLIDNLGPAMMLSDRLTFLGKYREFHRMYGEKRFADAASLLLSLMTSRIAPRSFWMTLLTDALPLLEQKQVIFSAEQTYELMRCLEDLTSRRPVHGESDTEQLQDDDIETTKVEMLRLSLARNLARAIIREGSLEGS
partner: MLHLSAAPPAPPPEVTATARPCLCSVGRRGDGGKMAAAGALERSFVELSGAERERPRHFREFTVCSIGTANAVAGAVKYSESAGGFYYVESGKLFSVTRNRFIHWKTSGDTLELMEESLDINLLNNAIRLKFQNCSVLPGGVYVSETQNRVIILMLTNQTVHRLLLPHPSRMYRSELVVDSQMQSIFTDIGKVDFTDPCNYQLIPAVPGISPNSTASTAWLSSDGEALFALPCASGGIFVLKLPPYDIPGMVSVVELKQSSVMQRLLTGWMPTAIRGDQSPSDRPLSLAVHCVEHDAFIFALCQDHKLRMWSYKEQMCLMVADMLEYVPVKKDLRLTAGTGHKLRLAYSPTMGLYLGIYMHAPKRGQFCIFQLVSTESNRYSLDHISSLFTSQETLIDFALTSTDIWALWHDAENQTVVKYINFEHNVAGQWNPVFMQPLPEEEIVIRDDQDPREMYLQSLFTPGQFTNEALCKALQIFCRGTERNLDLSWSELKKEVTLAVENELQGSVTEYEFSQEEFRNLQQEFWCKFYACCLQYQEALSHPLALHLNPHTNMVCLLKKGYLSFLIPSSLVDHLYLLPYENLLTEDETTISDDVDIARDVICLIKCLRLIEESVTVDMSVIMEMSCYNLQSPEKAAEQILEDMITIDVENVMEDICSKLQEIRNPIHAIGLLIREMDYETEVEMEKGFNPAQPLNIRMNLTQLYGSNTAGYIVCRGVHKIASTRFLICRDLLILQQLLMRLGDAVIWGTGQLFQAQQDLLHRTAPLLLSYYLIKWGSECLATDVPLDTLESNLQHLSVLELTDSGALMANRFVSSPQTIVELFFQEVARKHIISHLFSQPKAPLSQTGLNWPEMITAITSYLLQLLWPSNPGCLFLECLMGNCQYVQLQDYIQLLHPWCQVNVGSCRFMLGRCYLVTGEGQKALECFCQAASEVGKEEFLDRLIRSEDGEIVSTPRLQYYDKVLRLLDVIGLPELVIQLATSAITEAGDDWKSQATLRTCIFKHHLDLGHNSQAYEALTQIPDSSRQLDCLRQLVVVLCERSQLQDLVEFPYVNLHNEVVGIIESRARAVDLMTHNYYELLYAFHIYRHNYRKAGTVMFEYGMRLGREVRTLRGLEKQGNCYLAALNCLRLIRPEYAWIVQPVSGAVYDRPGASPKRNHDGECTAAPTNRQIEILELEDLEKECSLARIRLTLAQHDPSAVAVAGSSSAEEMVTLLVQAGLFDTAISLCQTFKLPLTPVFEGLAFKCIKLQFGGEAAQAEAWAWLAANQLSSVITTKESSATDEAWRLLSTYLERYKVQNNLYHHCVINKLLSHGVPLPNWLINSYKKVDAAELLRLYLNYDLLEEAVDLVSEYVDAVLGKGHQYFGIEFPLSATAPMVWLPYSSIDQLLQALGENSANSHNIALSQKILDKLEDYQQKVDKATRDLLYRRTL

Variants of: B1
Conditions: with nu160_human NUP160, Q12769

Row | Variant | effect of a mutation on the interaction
1 | A477V | decreasing interaction strength
2 | A581P | disrupting interaction strength
3 | R645W | decreasing interaction strength

Variants of: B1
Conditions: with nu160_human NUP160, Q12769
Remark: another data set of the same source

Row | Variant | effect of a mutation on the interaction
4 | A477V | with no effect
